Experiment: protease stability score; higher = more stable; yeast display proteolysis, trypsin and chymotrypsin;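 further: relative to predicted unfolded state with 0 unfolded-like and 1 meaning tenfold more protease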

Sequence	protease stability score
TDRHEIIIHRMKRLMLMELTGDEKLWERLVDPDVRIIFIFNGRRHEFHGREKALERLHDWWDHLRIDHLEVRRYDVINGRARTDMESHDTYDGQHYVIKFELVVQVIDGRVHSVEMIFK	1.44
TDVEEQVHVAIELHLRTLLTGDEHLSEKLADPHVRILIDGQDYHGRTEWVKWIHTFHKRVDHHQIDVTTLSVQGDKIRIHFELKLHVNGVDLRFHILLIIEKYNGVWIMSEVHIS	1.67
TEDDEHLEEEAEEYKEYVRTGDWKKIFELADPHTKIDIGNYKRHGMEDFLRDVIHVYTKLGVTIEHHVHDVRVINGRAHVNMEVRVHYGEKDERIKTTLIMRKVDGRWKLTSIHFK	1.15
TEDDEILREALEIWRYVEQTGDEEDTHRMVDPHAKMIFNGKEIHGREHISRWMKEIRIHELRVHSFRVIDGRLILEVELVGRFNGREDTIEVEIISEKVDGRWVVSSLTIR	1.29
TEDDELEKWATQLVKEVLETGDERLLENLADPNVRVEIGEKDSHGREEMLKDWKHMGIDHIHFEHSEFVGDFIDIHLVIHVNGKDLKQRIIILKIDGQWFLHSVHVE	1.75
TEDDELLHRAERLVYHSLLTGDFHTLKHLMDPHVRTHIDGRDTHGRDKATNFFIKYWEDLGVKHITYEDMHVHFFEGHLTVLLIVKLNIDGRERRNVYIFIFMKIDGKWLNHEVHIHIN	0.651
TEDDENAKMIMHLLYNHMKTGDFDTLVDMVDPHARNIIDGRELVGWEHFYRWLHELGFNHNELRVRDIKHFDGKVDVDVELILNVGDKHLRIRTTFIVRKVNGRWFIESIRLK	1.38
TEDDEWFNEILRLMVEAMKTGDEHILERLLDPHVRIEINGKEIHGREEFVERLEEQQRKFKGIRHELEIKHTEVINGRAHIDGRLHIDVNGRRKIYRVELVILKIDGRWSVEEIRIH	1.67
TEDDHKFEEAMRLWEHIEKTGDPHTASKMLDPNVRIYINGRELHGRHLFEHLEEHWLLELRLKHVQIQHIEVIDGRLEFDVEVNGQQGDKDIRMRVNVTVHKIDGRWFLKMVSFE	0.705
TEDDKDWEEIYKMLEHASKTGDERIFNKFIDPNTMSVVNGVDLIGMERWRNHWEHARFRHIEFRHVEIIDGRLDIQGHLRGEYNGREIRTDMRLIILKIDGRWIHKSFEFH	0.944
TEDDRAFELSMRKWLESHRTGDEKTMHELLDPNARYHIGEFHLHGWKEADRLVREIRIHHVEDKHVEIQGDKIRIHTRVDITINGQKSSVELELVLVKVNGVWFVHSVILR	1.8
TEDDRDFKLALELVEHHIKTGDEDDMSRLADPHVRIDDENETHHGREEFEEFVHRMIKRFKNIKWELKRTESQGDKIRIDFRIHVGDKTLRLIIIAEKVDGRWLIHTVIIN	1.35
TEDDRIFKEALELWVFAMNTGDERILFEMVDPHVRFVIGDKEYHGMEWRHKVLIELRIHRVRLEITHRDQFNGRIHIDGILQIDGEFNGRRDKTETEVRVTYTKFDGKWYYKEVIHL	1.44
TEDEDIFRHALEVWLRSFLTGNEEILNHLFDPHARVHIDGKNLHGMEMMVTHRQRHIEEARIRDSDIEHKNVIDGRIHIDIRVHGEVNGQEMDFNVTIIAMKVDGRWLIHSLHVE	0.265
TEDEDRLTEMIEELLHALLTGDEKRKDELIDPHTKLDVNGRERHGMEEIKKNWRKLGVERIDLRVRERRIVNGVAHIRGDLHVGDKSMEVHIVFVKVDGRWIVHSFFIH	1.31
TEDEDVLKEATRLFVEALKTGDWDHMRRLIDPNARVTQGDKEIHGMEDTVKIRRHLYEKWGVERVEMRIHDMEYQGDKLKVDMELQIGDKHKRIELVLRKVDGQWIIERIRYT	0.528
TEDEDYMHDATREFVTNVATGDEDRLRELMDPRTRHVYNGVRLHGRNLALEFWTHFRRELGVDHIEIRIRDLKFQGDYIHLHTEIVMDFNGVRIIYDTFVRVRKFNGQWMLQSSEIH	0.194
TEDEEAAERMIKTWLEKIITGNEEFLTEFMDPDTKVDINGKELHGWEDILQHLRHIRVHDMHVEIEDVRFINGVIEIRGTMHKDGEVNGRRTQTEQHVVFVLQKIDGRWRLRSYSIR	2.27
TEDEEAARRHTQEWIHAVRTGDEELLERMIDPEYKLDYNGVDIIGREEYIRIRSEQLQKFKNMRIEVRIHELRHQGDKIDLDVLIIEKWNGVTFRERSHLVILKFDGRWFIRFTSIK	0.801
TEDEEAFKENIRILLELTKTGDFKEMSKLLDPHVRIIINGKLFVGMEHADRLVRERNEEWRIESLEVEHLQSVDGQIHADTKMHVNINGVHRIHDTHQIVLKVNGRWFMEQIEIR	1.01
TEDEEDSLFAFDEWVKSVETGDEHTLSKLADPHTRLNVNGVDQHGRENMSHMMLRLANRYDHIEIRLHSWRLINGRIEVDSRVINVVGDKRIESNFHMFILKVNGRWLMHSVHFE	0.847
TEDEEFAFEIIRLFHEALLTGDEETLHHLVDPNARMQIGEFTTHGRSMVKFFNKRFDHWEMRVEFRRIHYIGDKVFVDTRIRILIEYNGRFIETSVEQRIVTRKIDGKWQITRLEIV	1.05
TEDEEISEKAFRYLVESLETGDEETDRHLADPHVRIVFEGRSYHGREQFHEIMSHIRVHHVEIRDVRVQGNKVDWDTQSKVEFNGRKYWVQTRIIVLKVDGRWILHSYILK	0.708
TEDEEKSHEFVHRLSHSVMTGDWKDIKRLADPNMKSRVNGREIHGWDKTKRMLDEEEEQLGVSRFEFDLKRVDTQGDKLFIDMRMKVNGRTLEVTYHVEKVNGRWLVTEFHIL	0.555
TEDEELAKLVSEILLHIMETGDEDKLSKMADPHVRVNINGRERHGWRNMVRVLHETIRNLGIEIKSVHIRDLKIQGDKIRVTMEIDYQQGDKRNEWSSHLIIIKIDGRWHLHAFELN	1.26

Sequence	protease stability score
TEDEELIERYVRFFLKIMETGDEKLTERMMDPDARFEIGDKEEHGREAIYEWLSKIKNIRIKIHHIKIQGDKLHLDVRFHINGKEIEVEIVSKKIDGKWMVHSVIVK	1.5
TEDEELSHEIFEIWERVRRTGDEHTLERLADPNMRVHIDGQDYHGREMLFEFLNRFKGLKSDIHDMRIEIVGDYIILNIKVHITVNGREIHLTIHLHSRKFNGKWHLKELEIRKI	1.32
TEDEELTSRANKEFQEFETTGDEEVLKRLFDPNTRLDVNGQDRHGRDEVVHLLVRMIHKLGIDHVSLKEVRIVNGKLDLNLTINVGEKRINTRLIHKKVNGRWVIETVEMG	1.23
TEDEENAERVARMFLKLLTTGDEHRLTELLDPNVIVEVGDKILIGREEALKLLRTWREKYGIDHVDVRHVEIEIVGDKVNVHMHGTIYVGDKKKDTRIHLHIRKINGRWMVEKVSIEEK	2.68
TEDEENVIEATRIFNRVLETGDEDSLKRLLDPNVRVNFDGVELIGWEDFLKFVFEWRKKAGITQVKSEPRDMDLQGNKVHNETILHINGRTFETRLVHEKVNGRWIARSIRFS	1.21
TEDEEYVKHIIDLFWHVKKTGDESHMKELADPNVRIEVDGRDIIGMEDVLKWEKDHREKIKGIRLNVHQWRIIGNKVESDLIVNINGVTIEFHVTVIIVNGKLHSLRVEFE	1.21
TEDEHDARLALHILLELLRTGDEDSLSKYIDPNVRNEVNGQDLHGRNTMERLLKHWRIEEVRVKDVRVQGDKVIMHGREVIRQGDYVIDQDVHWLLVKVDGRWLLHSIHFR	0.918
TEDEHHEELIAKELFHNFLTGNEDLLSEMADPNTKSDIDGKHDVGREEMSRSLIEFLDKMGIKHLVLTDHRAVNGKVILHERVHVNGRDIEVNLTWDVWNGRIKRVEIRITHR	0.982
TEDEKFVEEFTRLIMHSFRTGDWELFEHLLDPDTRIEQGDWERIGMEEAIRLLHKVVHEMRVTHTDLKSITVIDGRIEIDARVHLEFNGQSVTYTQLILSIKIDGRWVLKSVHFH	1.87
TEDEKIAKDTLEEITEALATGDEDQLNRLMDPNVKIFFNGQEIHGRHDSVKYWREIRIRDSHIIIRHVDIQGDKIRLDGEYQLRGEIDGQEIERTMHVRLFMHKVNGRWIVRRQVWG	1.56
TEDEKLSEDMTQHFIELLFTGDFDKISELADPNVRIHAENRTLVGRESFKRLMKKEIEFFKGARFHIEDLHIYDGRVDIHEIVSYGEFVIRRTIHSHKINGKWLETEVRLG	0.929
TEDEKLVEIALELWLRSLRTGDEDMFRELFDPNTRIFVNGVDHHGRHALEIVKERYDHVRDFHIELRSVHYVNGVLHVDGHFRMDIKYGDKRRIIENRTIMIIEKINGRWIFKHERLE	1.24
TEDEKMAEDLLKLILEAMETGDERIFRHLVDPNVRVSQGEKQLHGREAVEEMLKHLRLHRVRIRDVHVVGDKIIVQGEIHGEIGDFRFESHIIVYIHKFNGQWRHKSIEIK	1.42
TEDEKMLKESLERLLYTLHTGDEEFNKRLMDPEVRIVIGDKELHGMELARKFWEKLYKDLGADHVHMDVKHVRSIGDKVEVDSQLIFRVGDKEIRVDTKLFSHKFDGRWRLRYEYVD	1.39
TEDEKRYDDLVRHMLEVHRTGDEDLLERLLDPNARFLIDGVEYHGREQALEIARELRITSIRIRRIEFYGDKVTMDTEIDGRVNGRRRDTRVKEIWLKVDGKWYLESMEIH	1.43
TEDEKTAKHAKELLEHSIRTGDERLMERLLDPHALLIFDGRHIHGREDISRWYREIRIHHIHDENSEIQGDKLHLHMRIDGEYDGKRHELRVHWHSEKVNGRWSIRQVVLH	1.44
TEDEKVMKEAVEIQIHMFRTGNWDSLHKLVDPNARLDVDGREFHGREDFVRFIKKEAHEARVEDVIFRHVTTQGDKIVTHFDVRGVINGVEEIRKVTVFLRKINGRWLIESEEID	0.737
TEDEKVNDLAMEEIYTLMLTGDEERMEELFDPNVRMIIDGRRHVGREVFKDHMREWRWERTHVEDQRTFDGRAILHTRVDVTVGDKRRDVRIHIISSKINGRWVIKRIIIE	0.758
TEDERDAKRMAETMVKLWETGDWRTLFELADPDMRFEYGDKRFHGREKLIKVLRDIFERLGIDHSHVRDFKIIFVGEKVEVRLDIETHFDGRTEEFHIEINVRKIDGRWRLKSMHIEIR	2.02
TEDERDFREFWERWLHNTVTGDEELLSRMMDPHAKLHVGDKENVGMEEAARLFVEISDELRLHSFHIRHEEHQGDKVILHTRMNVRINGKEINFRTVMIVRKIDGRWIIRSFQID	0.713
TEDERDMHEAMERHLQDLRTGNWEDVHRQVDPNVRLVFNGKEVHGREEYVEHTVRLAERADHIELRIRHIDTQGDKLRVEGELIIRQGDKTFIHEVELLFLKVNGRWIIHSFEIK	1.55
TEDERDMQEFYERLIHAIHTGDWREIRRQFDPNVLLNFNGKEIHGREQALRLMRELLHRADVIDDTKTKDLKFYNGRVELHIHEQGQINGQHFRSDVMLIVEKVNGRWYMKSYQID	1.37
TEDERDVVKLLHLVSKLWLTGDEHILEHLADPSVRSDFDGVRLHGRRLLSYFLSELRIHHVEVRDVRVEYQGDKLIARSDTEVDLEIDGQRHRMDTRMILISRKWDGRWLIESISFEIQ	2.04
TEDERHLEESIELFHEVHRTGDEEQLHRMLDPSVRVDVNGRILHGREIVVEWLRRTLEKFKNVQIEFILKDRDHINGVLRIHGVLLVNVGDKHTIIDTIIVAHKVNGRWLIHSMHVK	2.15
TEDERILKELAHLLLLLWKTGDENIWRELADPNVRVIFLIGDKEEHHHGRDMFIKLRHDYGVDHMELRRVDVQGDKVRFEGDLWVDGRIHRVHINFSVINGKVHQIKIDFS	2.49

From the NTF2 design screens of Basanta et al. (2020)
